The target of this data set is T1, ATF1 (Homo sapiens, UniProt P18846 SEQ:1-271).
T1 sequence: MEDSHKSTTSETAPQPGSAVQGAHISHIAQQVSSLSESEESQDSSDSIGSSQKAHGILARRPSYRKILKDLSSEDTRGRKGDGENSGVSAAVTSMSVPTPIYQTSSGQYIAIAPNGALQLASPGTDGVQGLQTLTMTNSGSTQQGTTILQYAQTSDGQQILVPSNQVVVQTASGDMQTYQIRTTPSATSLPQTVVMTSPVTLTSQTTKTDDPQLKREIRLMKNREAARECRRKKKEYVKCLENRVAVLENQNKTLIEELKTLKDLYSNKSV
As to the kind of experiment: competition; 100-fold excess unlabeled AP1 did not diminish ATF1/CRE complex. The note with it: tags: E. coli pET-11d, DNA-cellulose purified.

The text below walks through data of US20050214309A1, “Methods and compositions for modulating transcription factor activity” (published 2005).

B1: AP1 oligonucleotide (dsDNA)
DNA 1: CGCTTGATGAGTCAGCCGGAA
DNA 2: TTCCGGCTGACTCATCAAGCG
Regarding B1, the binding result is recorded as “no binding”.
